First the molecules themselves.
B1: Twister Ribozyme (parent)
chain: AACACUGCCAAUGCCGGUCCCAAGCCCGGAUAAAAGUGGAGGGGGCGG

Data on 167 variants can be found in the RNAGym collection of RNA variant scans (doi:10.7554/elife.80360).

Variants of B1 are the subject of this series. The experiment in a line: self-cleavage, relative activity (ratio to wild type); higher = more cleavage; co-transcriptional.
Regarding G24C U37G, the self-cleavage stood at 0.12.
The value for C8A A34G was 0.701; that for A11C U18C was 0.154; that for A2C G24A was 0.0674.
For the variant A10C C46A, the self-cleavage was determined as 0.898.
Regarding C20U U31G, the self-cleavage is 0.873.
In the case of C14A G44A it was 0.838; in that of G36U G44U, 0.355.
In the case of U6G A32C it was 0.419.
In the case of U12C C25A it was 0.122.
In the case of U6A G16C, the self-cleavage came to 0.135.
On to A4G U31G, for which the self-cleavage is 0.759.
In the case of A4G A33G it was 0.941.
The value for A11C G47A was 0.836; that for A10G C15U was 0.902.
In the case of C20A C46A it was 0.0788; in that of G16C U37G, 0.134.
C5U C14G: the self-cleavage was 0.0879.
In the case of G16A C20U it was 0.837; in that of G13A G39C, 0.168; in that of A4U C15G, 0.0221.
In the case of C27A G48C it was 0.563.
The value for C25G G47A was 0.153; that for G39A C46A was 0.463; that for C8U C27G was 0.0565.
Consider C27U A35C, for which the self-cleavage was 0.641.
On to C25G A30C, for which the self-cleavage stood at 0.129.
In the case of A4C G47C it was 0.0906; in that of C15A G36C, 0.0919.
In the case of G43C G47C it was 0.159; in that of C27A G38C, 0.573.
In the case of A22C C27A it was 0.768; in that of A10U G24A, 0.0831.
Consider A23C G42C, for which the self-cleavage was 0.156.
In the case of A10G U31G it was 0.994; in that of G17U G24A, 0.101; in that of C20A G42U, 0.668.
For G13C A30G, the self-cleavage came out at 0.502.
Turning to A35U G44A, the self-cleavage amounted to 0.843.
In the case of A11U G39U it was 0.279; in that of A23C G45U, 0.156.
The value for A4U A40U was 0.0743.
For the variant C5A G13A, the self-cleavage was 0.132.
In the case of U6G A30C it was 0.246; in that of A22U C26G, 0.0767.
The value for A4G G28A was 0.58; that for A4G G28U was 0.644; that for A2G G45C was 0.0901.
In the case of G36A G44A it was 0.8.
Turning to U12C G29C, the self-cleavage stood at 0.877.
The value for A22G U37C was 0.129; that for A1C C14U was 0.19.
The value for A4G C14U was 0.957.
Consider A22C G45U, for which the self-cleavage came to 0.946.
The value for A40C G44A was 0.298; that for U12C G43C was 0.145.
For the variant G41A G43A, the self-cleavage was 0.171.
For the variant A2U G29A, the self-cleavage worked out at 0.474.
In the case of C21A G24A it was 0.0758; in that of G38C G48C, 0.977.
The value for G29A A35G was 0.657.
In the case of A2G G13U it was 0.0873.
C3G A22G: the self-cleavage was found to be 0.124.
In the case of A10U A33C it was 1.08; in that of A35U G38A, 0.925.
The value for G39C C46U was 0.14; that for C9U A40C was 0.161.
In the case of A10C G24A it was 0.0991; in that of U6A C21U, 0.0948.
Turning to C15A A30U, the self-cleavage worked out at 0.89.
In the case of A1C U18C it was 0.17.
The value for C9U G13C was 0.592; that for A11G G29A was 0.772; that for G13A G48U was 0.705.
The value for A2G G43C was 0.122; that for G29C A34C was 0.148; that for G29C A34G was 0.214.
As to G17A A32C, the self-cleavage was determined as 0.303.
In the case of C8G G13A it was 0.405.
The value for C5U U12C was 0.769; that for A33U A40G was 0.154.
G7A G45A: the self-cleavage amounted to 0.397.
The value for G28U G36A was 0.388.
Turning to C21U G43C, the self-cleavage worked out at 0.0867.
The value for A1U A35G was 0.025; that for U12C A23C was 0.234; that for U6A C25G was 0.121.
In the case of A1C G13C it was 0.116; in that of C3G G39A, 0.0984; in that of U18G A22G, 0.0592.
The value for A1C U12C was 0.144; that for A30U A34G was 0.937.
With C25A A34C, the self-cleavage was 0.0515.
The value for U18G G36A was 0.0894.
In the case of A23C C46G it was 0.155; in that of A10G G43U, 0.576.
The value for C9A G29C was 0.307; that for A10U C25U was 0.731; that for A10U C25A was 0.0757.
For the variant A1C C21G, the self-cleavage came to 0.0972.
The value for A10U G39A was 0.531.
In the case of U37G G42U it was 0.163.
The value for A1G A33G was 0.499; that for G17A G36C was 0.118; that for C21G G39C was 0.128.
For A1G G17A, the self-cleavage amounted to 0.367.
In the case of C14G A35C it was 0.244; in that of C15A C27A, 0.18; in that of C27A G43C, 0.136.
The value for G17U U31C was 0.495.
The value for G7U G36C was 0.0408; that for G36C G43A was 0.134.
As for G16U U31C, the self-cleavage is 0.725.
Turning to C8A U12G, the self-cleavage came to 0.213.
C5A A40C: the self-cleavage came to 0.129.
Turning to C20U A22U, the self-cleavage was 0.543.
The value for A23G A33U was 0.393; that for C25U G28A was 0.713; that for U37C G42C was 0.196.
The value for C26G G28C was 0.142.
In the case of C19G C46A it was 0.18.
Take A1G A32U: the self-cleavage is 0.459.
In the case of A34C G38U it was 0.138; in that of A30C A32U, 0.9; in that of C5G G44A, 0.642.
The value for C20G C21G was 0.103; that for A2C G42C was 0.0693; that for C25G G36U was 0.103.
The value for U12G G41A was 0.658; that for A4G C19A was 0.0929; that for C9U G47A was 0.425.
As for C5A G42C, the self-cleavage was 0.184.
In the case of G17U G43U, the self-cleavage is 0.12.
The value for A2G A34G was 0.192; that for G38C G43C was 0.137; that for G38C G43U was 0.242.
In the case of U6C C21G it was 0.109; in that of A11U G24A, 0.108.
The value for G28C C46U was 0.841.
For G17U G28C, the self-cleavage stood at 0.0949.
With U12G G13A, the self-cleavage worked out at 1.14.
The value for C8A G28A was 0.281; that for A1G C5A was 0.224; that for A23U G42U was 0.0934.
In the case of U6A U31G it was 1.01; in that of C3A G17U, 0.0649.
As for A11U G16C, the self-cleavage amounted to 0.532.
In the case of G17U G38U, the self-cleavage was 0.158.
Consider G16A C19A, for which the self-cleavage came to 0.241.
Regarding C15U C25A, the self-cleavage was 0.178.
In the case of G7A G29A it was 0.325.
The value for C21U G48C was 0.133; that for C3G G29A was 0.348.
As to C3U G48C, the self-cleavage was determined as 0.484.
The value for C27A G44U was 0.41; that for G7A U18A was 0.0724.
In the case of C25U G39C it was 0.117.
In the case of G16C C25G it was 0.0947; in that of U31C G44C, 0.976; in that of A2C G36U, 0.0783.
In the case of C14A C26A, the self-cleavage stood at 0.38.
The value for G17C A23U was 0.0824; that for G13A G44A was 1.04; that for A34G G43A was 0.136.
The value for C20U A23U was 0.17; that for C25G G38U was 0.131.
In the case of G28U A35U it was 0.888.
